In article PMC12164381 (mAbs, 2025):
Read-outs that look alike come from different tables or passages of the source.

B1: S2K146 (antibody, V domains shown)
VH: QVQLVESGGVVVQPGGSLRLSCAASGFTFHDHTMHWVRQAPGKGLEWVSLITWNGGTIHYSDSVKGRFTISRDNSKNSLYLQMNSLRTEDTALYYCAKDLGRGGWYLPSDAWGQGTLVTVSS
VL: not shown
B2: BD55–5840 (antibody, V domains shown)
VH: VQLAQSGSELRKPGASVKVSCDTSGHSFTSNAIHWVRQAPGQGLEWMGWINTDTGTPTYAQGFTGRFVFSLDTSARTAYLQISSLKADDTAVFYCARERDYSDYFFDYWGQGTLVTVSS
VL: EVVMTQSPASLSVSPGERATLSCRARASLGISTDLAWYQQRPGQAPRLLIYGASTRATGIPARFSGSGSGTEFTLTISSLQSEDSAVYYCQQYSNWPLTFGGGTKVEIK
B3: Inverse folding design from the DXP-604 starting point (Table 5, design row 1, the 5th table, row 4) (antibody, V domains shown)
VH: EVQLVESGGGLIQPGGSLRLSCAASGIIVSRNYMTWVRQAPGKGLEWVSVIYSGGSTFYADSVKGRFTISRDNSKNTLYLQMSSLRAEDTAVYYCARDLGPYGMDVWGQGTTVTVSS
VL: DIQLTQSPSFLSASVGDRVTITCRASQGISSDLAWYQQKPGKAPNLLIYAASTLQSGVPSRFSGSGSGTEFTLTISSLQPEDFATYYCQQLMDTLYTFGQGTKLEIK
B4: Inverse folding design from the DXP-604 starting point (Table 5, design row 5, the 5th table, row 8) (antibody, V domains shown)
VH: EVQLVESGGGLIQPGGSLRLSCAASGIIVSRNYMTWVRQAPGKGLEWVSVIYPGGSTFYADSVKGRFTISRDNSKNTLYLQMSSLRAEDTAVYYCARDLGVYGMDVWGQGTTVTVSS
VL: DIQLTQSPSFLSASVGDRVTITCRASQGISSDLAWYQQKPGKAPNLLIYAASTLQSGVPSRFSGSGSGTEFTLTISSLQPEDFATYYCQQLNDYLYTFGQGTKLEIK
B5: Inverse folding design from the DXP-604 starting point (Table 5, design row 4, the 5th table, row 7) (antibody, V domains shown)
VH: EVQLVESGGGLIQPGGSLRLSCAASGIIVSRNYMTWVRQAPGKGLEWVSVIYSGGTTFYADSVKGRFTISRDNSKNTLYLQMSSLRAEDTAVYYCARDLGPYGMDVWGQGTTVTVSS
VL: DIQLTQSPSFLSASVGDRVTITCRASQGIGSDLAWYQQKPGKAPNLLIYAASTLQSGVPSRFSGSGSGTEFTLTISSLQPEDFATYYCQQLNSDLYTFGQGTKLEIK
B6: Inverse folding design from the DXP-604 starting point (Table 5, design row 2, the 5th table, row 5) (antibody, V domains shown)
VH: EVQLVESGGGLIQPGGSLRLSCAASGIIVSRNYMTWVRQAPGKGLEWVSVIYSGGTTFYADSVKGRFTISRDNSKNTLYLQMSSLRAEDTAVYYCARDLAVYGMDVWGQGTTVTVSS
VL: DIQLTQSPSFLSASVGDRVTITCRASQGIGSDLAWYQQKPGKAPNLLIYAASTLQSGVPSRFSGSGSGTEFTLTISSLQPEDFATYYCQQLNSDLYTFGQGTKLEIK
B7: Inverse folding design from the DXP-604 starting point (Table 5, design row 6, the 5th table, row 9) (antibody, V domains shown)
VH: EVQLVESGGGLIQPGGSLRLSCAASGIIVSRNYMTWVRQAPGKGLEWVSVIYSGGSTFYADSVKGRFTISRDNSKNTLYLQMSSLRAEDTAVYYCARDLGPYGMDVWGQGTTVTVSS
VL: DIQLTQSPSFLSASVGDRVTITCRASQGIGSDLAWYQQKPGKAPNLLIYAASTLQSGVPSRFSGSGSGTEFTLTISSLQPEDFATYYCQQLNSDLYTFGQGTKLEIK
B8: Inverse folding design from the DXP-604 starting point (Table 5, design row 7, the 5th table, row 10) (antibody, V domains shown)
VH: EVQLVESGGGLIQPGGSLRLSCAASGIIVSRNYMTWVRQAPGKGLEWVSVIYSGGSTFYADSVKGRFTISRDNSKNTLYLQMSSLRAEDTAVYYCARDLGPYGMDVWGQGTTVTVSS
VL: DIQLTQSPSFLSASVGDRVTITCRASQGISSDLAWYQQKPGKAPNLLIYAASTLQSGVPSRFSGSGSGTEFTLTISSLQPEDFATYYCQQLNSDLYTFGQGTKLEIK
B9: Inverse folding design from the DXP-604 starting point (Table 5, design row 3, the 5th table, row 6) (antibody, V domains shown)
VH: EVQLVESGGGLIQPGGSLRLSCAASGIIVSRNYMTWVRQAPGKGLEWVSVIYSGGSTFYADSVKGRFTISRDNSKNTLYLQMSSLRAEDTAVYYCARDLGPYGMDVWGQGTTVTVSS
VL: DIQLTQSPSFLSASVGDRVTITCRASQGISSDLAWYQQKPGKAPNLLIYAASTLQSGVPSRFSGSGSGTEFTLTISSLQPEDFATYYCQQLNDLLYTFGQGTKLEIK
B10: LY-CoV1404 (antibody, V domains shown)
VH: QITLKESGPTLVKPTQTLTLTCTFSGFSLSISGVGVGWLRQPPGKALEWLALIYWDDDKRYSPSLKSRLTISKDTSKNQVVLKMTNIDPVDTATYYCAHHSISTIFDHWGQGTLVTVSS
VL: QSALTQPASVSGSPGQSITISCTATSSDVGDYNYVSWYQQHPGKAPKLMIFEVSDRPSGISNRFSGSKSGNTASLTISGLQAEDEADYYCSSYTTSSAVFGGGTKLTVL
B11: Inverse folding design from the LY-CoV1404 starting point (Table 5, design row 2, the 5th table, row 13) (antibody, V domains shown)
VH: QITLKESGPTLVKPTQTLTLTCTFSGFSLSISGVGVGWLRQPPGKALEWLALIYWDDDKRYSPSLKSRLTISKDTSKNQVVLKMTNIDPVDTATYYCAHHSISTIFDHWGQGTLVTVSS
VL: QSALTQPASVSGSPGQSITISCTATSSDVGIYNYVSWYQQHPGKAPKLMIFEVSDRPSGISNRFSGSKSGNTASLTISGLQAEDEADYYCSSYTTSAAVFGGGTKLTVL
B12: Inverse folding design from the LY-CoV1404 starting point (Table 5, design row 1, the 5th table, row 12) (antibody, V domains shown)
VH: QITLKESGPTLVKPTQTLTLTCTFSGFSLSTSGVGVGWLRQPPGKALEWLALIYWDDDKRYSPSLKSRLTISKDTSKNQVVLKMTNIDPVDTATYYCAHHSISTIFDHWGQGTLVTVSS
VL: QSALTQPASVSGSPGQSITISCTATSSDVGNYNYVSWYQQHPGKAPKLMIFEVSDRPSGISNRFSGSKSGNTASLTISGLQAEDEADYYCSSYTSSSVVFGGGTKLTVL
B13: REGN10987 (antibody, V domains shown)
VH: QVQLVESGGGVVQPGRSLRLSCAASGFTFSNYAMYWVRQAPGKGLEWVAVISYDGSNKYYADSVKGRFTISRDNSKNTLYLQMNSLRTEDTAVYYCASGSDYGDYLLVYWGQGTLVTVSS
VL: QSALTQPASVSGSPGQSITISCTGTSSDVGGYNYVSWYQQHPGKAPKLMIYDVSKRPSGVSNRFSGSKSGNTASLTISGLQSEDEADYYCNSLTSISTWVFGGGTKLTVL

Assays:
Test in all cases: SPR
[1] = biological target: T1, SARS-CoV-2 Spike RBD, original (Wuhan) strain (SARS-CoV-2, original Wuhan strain, UniProt P0DTC2)
[2] = biological target: SARS-CoV-2 Spike RBD, XBB.1.5 strain (SARS-CoV-2, Omicron XBB.1.5, strain)
[3] = biological target: T1, SARS-CoV-2 Spike RBD, original (Wuhan) …; remark: listed apart in the source

Binder	pKD [1]	pKD [2]	pKD [3]
B1	10.3 -log10(KD)		
B2	10.1 -log10(KD)		
B3		6.33 -log10(KD)	10 -log10(KD)
B4		6.33 -log10(KD)	10.8 -log10(KD)
B5		6.35 -log10(KD)	9.53 -log10(KD)
B6		6.15 -log10(KD)	10.2 -log10(KD)
B7		6.28 -log10(KD)	10 -log10(KD)
B8		6.07 -log10(KD)	10.6 -log10(KD)
B9		6.01 -log10(KD)	9.38 -log10(KD)
B10	9.01 -log10(KD)		
B11			9.48 -log10(KD)
B12			9.57 -log10(KD)
B13	7.84 -log10(KD)		
